{"source": "patent WO2018215614A1", "about": "(dated 2018)", "target": "T1, mouse Gpa33 in which human Exon III had been substituted (mouse; human, UniProt Q9JKA5 22-70; Q99795 71-139; Q9JKA5 140-319, limits assumed)", "T1 sequence (looked up)": "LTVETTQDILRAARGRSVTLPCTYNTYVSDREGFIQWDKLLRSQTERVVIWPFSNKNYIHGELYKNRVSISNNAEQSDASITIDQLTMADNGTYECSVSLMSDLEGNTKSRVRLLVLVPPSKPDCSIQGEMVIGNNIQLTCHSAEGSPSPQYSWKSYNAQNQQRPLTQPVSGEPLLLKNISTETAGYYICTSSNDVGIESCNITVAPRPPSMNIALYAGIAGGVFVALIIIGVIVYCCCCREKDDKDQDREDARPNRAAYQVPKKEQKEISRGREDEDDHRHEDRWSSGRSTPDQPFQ", "experiment": "cell-based or functional assay"}
{"binder": "anti-hGpa33/Rspo4 fusion protein (antibody, human IgG1, kappa) heavy: EVQLLESGGGLVQPGGSLRLSCAASGFAFSTYDMSWVRQAPGKGLEWVATISSGGSYTYYLDSVKGRFTISRDSSKNTLYLQMNSLQAEDSAIYYCAPTTVVPFAYWGQGTLVTVSSASTKGPSVFPLAPSSKSTSGGTAALGCLVKDYFPEPVTVSWNSGALTSGVHTFPAVLQSSGLYSLSSVVTVPSSSLGTQTYICNVNHKPSNTKVDKKVEPKSCDKTHTCPPCPAPELLGGPSVFLFPPKPKDTLMISRTPEVTCVVVDVSHEDPEVKFNWYVDGVEVHNAKTKPREQYNSTYRVVSVLPVLHQDWLNGKEYKCKVSNKALPAPIEKTISKAKGQPREPQVYTLPPSREEMTKNQVSLTCLVKGFYPSDIAVEWESNGQPENNYKTTPPVLDSDGSFFLYSKLTVDKSRWQQGNVFSCSVMHEALHYHYTQKSLSLSPGKEAAAREAAAREAAAREAAARVGTGLGGNCTGCIICSEENGCSTCQQRLFLFIRREGIRQYGKCLHDCPPGYFGIRGQEVNRCKKCGATCESCFSQDFCIRCKRQFYLYKGKCLPTCPPGTLAHQNTRECQGE light: DIQMTQSPSSLSVSVGDRVTITCKASQNVRTVVAWYQQKPGLAPKTLIYLASNRHTGVPSRFSGSGSGTDFTFTISSLQPEDIATYFCQQHWSYPLTFGQGTKVEVKRRTVAAPSVFIFPPSDEQLKSGTASVVCLLNNFYPREAKVQWKVDNALQSGNSQESVTEQDSKDSTYSLSSTLTLSKADYEKHKVYACEVTHQGLSSPVTKSFNRGEC", "values": [{"measurement": "difference in cell viability (ATP-driven luciferase cell viability assay), humanized Gpa33 organoids against wildtype organoids, at 0.2 nM fusion protein", "result": 200, "unit": "fold"}, {"measurement": "difference in cell viability (ATP-driven luciferase cell viability assay), humanized Gpa33 organoids against wildtype organoids, at 0.4 nM fusion protein", "result": 25, "unit": "fold"}]}
